In the experiment the target is Human full-length GIRK4 (purified) (human) (UniProt P48544).
Chain of UniProt P48544 (P48544 whole entry): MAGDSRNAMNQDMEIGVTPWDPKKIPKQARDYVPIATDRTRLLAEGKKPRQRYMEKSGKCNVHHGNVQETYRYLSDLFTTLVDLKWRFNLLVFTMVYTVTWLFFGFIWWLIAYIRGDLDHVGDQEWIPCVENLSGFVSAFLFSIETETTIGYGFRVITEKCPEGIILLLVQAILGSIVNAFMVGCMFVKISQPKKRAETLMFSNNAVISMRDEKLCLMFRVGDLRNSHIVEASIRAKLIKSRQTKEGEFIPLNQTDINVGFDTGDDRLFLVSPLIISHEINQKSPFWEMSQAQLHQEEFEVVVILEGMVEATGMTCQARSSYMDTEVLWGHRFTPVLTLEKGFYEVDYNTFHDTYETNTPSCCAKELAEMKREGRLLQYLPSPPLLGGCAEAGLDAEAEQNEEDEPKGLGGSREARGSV

“Human lipid-anchored Gβ1γ2 (from UniProt P62873 1-340; P59768 1-71) (complex)”: the inward GIRK current in planar lipid bilayers: increase on fusing further Gβγ vesicles to a bilayer holding GIRK and Gβγ at 1:0.1 (wt:wt), with 32 µM C8-PIP2 and 32 mM Na+ was determined as 5 fold.

The values are drawn from article PMC6335053.
